Measured values reported in patent US20140037642A1, “METHODS AND COMPOSITIONS RELATING TO INHIBITION OF IGF-1R” (AMGEN INC., priority 2011, published 2014).
pKi: −log10 of the molar value.

Key:
[1] = target: hu IGF-1R(ECD)-C3-muIgG1Fc (human; mouse); assay: ORIGEN competition with 1 nM Ru-IGF-1 for IGF-1R(ECD)-C3-muFc on beads
[2] = target: hu IGF-1R(ECD)-C3-muIgG1Fc (human; mouse); assay: ORIGEN competition with 2 nM Ru-IGF-2 for IGF-1R(ECD)-C3-muFc on beads

Row | pKi [1] | Max (%), maximum level of inhibition at 1 µM antibody [1] [%] | pKi [2] | Max (%), maximum level of inhibition at 1 µM antibody [2] [%] | Substance
1 | 7.80 | 89 | 7.88 | 99 | murine anti-IGF-1R antibody 1H7 (Santa Cruz Biotechnology)
2 | 8.28 | 91 | – | – | murine anti-IGF-1R antibody αIR3 (Calbiochem)
